Reference: article PMC9784774, “Neutralization Epitopes in Trimer and Pentamer Complexes Recognized by Potent Cytomegalovirus-Neutralizing Human Monoclonal Antibodies” (Microbiology Spectrum, 2022)

Experiments:
Conditions in all cases: both partners purified
[1] = target: T1, recombinant gH/gL/UL128/UL130/UL131A pentamer (wild type) (Human cytomegalovirus VR1814 (gH strain …, UniProt Q6SW67;F5HCH8;PDB)); assay: SPR; Biacore X100, CM5 chip, RT, 1:1 binding model; methods: antibody (4 μg/mL) captured by anti-human Fc IgG to about 100 RU, pentamer or trimer in five 2-fold dilutions injected at 30 μL/min, 90 s association, 600 s dissociation (the legend of Fig. 5 tells the reverse orientation)
T1 construct: also called CMV pentamer; HCMV pentamer complex; source: HEK293F, cotransfected with gH, gL, UL128, UL130 and UL131A plasmids, purified (Ni-NTA, SEC); not shown: His6, C-terminal, kept; copies: + + + +
T1 sequence (F5HCH8 whole entry, looked up, chain 1 of 2): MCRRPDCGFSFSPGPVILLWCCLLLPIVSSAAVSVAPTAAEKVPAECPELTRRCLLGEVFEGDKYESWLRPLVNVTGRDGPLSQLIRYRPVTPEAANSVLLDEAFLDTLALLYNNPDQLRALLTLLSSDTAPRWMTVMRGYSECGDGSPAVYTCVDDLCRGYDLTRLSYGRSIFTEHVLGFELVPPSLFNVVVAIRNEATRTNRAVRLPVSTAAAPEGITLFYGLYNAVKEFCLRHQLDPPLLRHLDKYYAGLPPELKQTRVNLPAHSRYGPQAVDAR
T1 sequence (Q6SW67 whole entry, looked up, chain 2 of 2): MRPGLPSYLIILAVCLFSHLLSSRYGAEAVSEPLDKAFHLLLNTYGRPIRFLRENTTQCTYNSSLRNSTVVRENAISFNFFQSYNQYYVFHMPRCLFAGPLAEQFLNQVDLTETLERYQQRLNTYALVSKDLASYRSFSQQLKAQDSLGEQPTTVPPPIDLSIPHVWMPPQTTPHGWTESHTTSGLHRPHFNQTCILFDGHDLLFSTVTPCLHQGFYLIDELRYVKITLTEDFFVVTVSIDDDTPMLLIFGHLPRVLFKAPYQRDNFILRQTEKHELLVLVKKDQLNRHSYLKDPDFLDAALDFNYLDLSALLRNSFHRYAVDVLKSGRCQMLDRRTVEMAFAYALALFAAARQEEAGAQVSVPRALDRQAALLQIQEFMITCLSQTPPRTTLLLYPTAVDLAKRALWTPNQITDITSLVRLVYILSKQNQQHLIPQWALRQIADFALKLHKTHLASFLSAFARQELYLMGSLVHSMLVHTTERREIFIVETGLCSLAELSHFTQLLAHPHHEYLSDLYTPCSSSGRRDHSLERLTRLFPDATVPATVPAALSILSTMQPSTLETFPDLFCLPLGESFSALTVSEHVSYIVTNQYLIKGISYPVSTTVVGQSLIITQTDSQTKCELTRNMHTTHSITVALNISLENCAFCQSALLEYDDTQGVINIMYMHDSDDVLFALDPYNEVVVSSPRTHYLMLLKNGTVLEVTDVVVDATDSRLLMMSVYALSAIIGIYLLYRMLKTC

[2] = target: T1, recombinant gH/gL/UL128/UL130/UL131A …; assay: as above; remark: listed apart in the source
[3] = target: T2, recombinant gH/gL/UL128/UL130/UL131A pentamer (wild type) (Human cytomegalovirus VR1814 (gH strain …, UniProt Q6SW67;F5HCH8;PDB)); assay: as above; remark: listed apart in the source
T2 construct: also called CMV pentamer; HCMV pentamer complex; source: HEK293F, cotransfected with gH, gL, UL128, UL130 and UL131A plasmids, purified (Ni-NTA, SEC); not shown: His6, C-terminal, kept; copies: + + + +
T2 sequence (F5HCH8 whole entry, looked up, chain 1 of 2): as the sequence (F5HCH8 whole entry, looked up, chain 1 of 2) above
T2 sequence (Q6SW67 whole entry, looked up, chain 2 of 2): as the sequence (Q6SW67 whole entry, looked up, chain 2 of 2) above

[4] = target: T2, recombinant gH/gL/UL128/UL130/UL131A …; assay: ELISA; pentamer, trimer or pentamer mutant coated at 100 ng/well (carbonate bicarbonate buffer pH 7.4, overnight 4°C); purified antibodies in eight serial 3-fold dilutions from 1 μg/mL, 37°C 1 h; detected with goat anti-human IgG (H+L)-HRP

B1: MAb 9I6 (antibody, V domains shown)
VH: EVQLVQSGAEVKKPGESLKISCRESGDTFPAYWIAWVRQMPGKGLEWMGIIYPIDSETTYSPSFQGQVTISADKSINTAYLQWSSLKASDSAIYYCARGTSTGLREAFHIWGQGTMVTVSS
VL: DVVMTQSPLSLAVTLGQPAYISCRSSQSLGYSDGNTYLNWFQQRPGQSPRRLIYEVSNRDSGVPDRFSGSGSGTDFTLKISRVEAEDVGTYYCMQGTHWPPMCSFGQGTKLEIK
notes: source: 293F cells, transient transfection, purified (protein A)
With B1 the Kd [1] was 0.82 nM, the koff [1] was 0.000139 s⁻¹ and the kon [1] was 168000 M⁻¹ s⁻¹. It also gave a Kd [2] of 0.484 nM.

B2: MAb MSL-109 (antibody, V domains shown)
VH: EEQVLESGGGLVKPGGSLRLSCAASGFTFSPYSVFWVRQAPGKGLEWVSSINSDSTYKYYADSVKGRFTISRDNAENSIFLQMNSLRAEDTAVYYCARDRSYYAFSSGSLSDYYYGLDVWGQGTLVTVSS
VL: DIVMTQSPLSLSVTPGEPASISCRSSQSLLHTNGYNYLDWYVQKPGQSPQLLIYLASNRASGVPDRFSGSGSGTDFTLKISRVETEDVGVYYCMQALQIPRTFGQGTKVEIK
notes: as for B1
With B2 the Kd [3] was 1.33 nM, the koff [3] was 0.00156 s⁻¹ and the kon [3] was 1.17e+06 M⁻¹ s⁻¹.

B3: MAb 8I21 (antibody, V domains shown)
VH: LVELVESGGGVVQPGRSLRLSCAASGFTFSSDGMHWVRQSPGRGLEWVAFISSDGSTPYYADSVKGRFTISRDNSKNTLYLQMNSLRAEDTAMYFCAKDWALFRWLRTFDHWGQGTLVTVSS
VL: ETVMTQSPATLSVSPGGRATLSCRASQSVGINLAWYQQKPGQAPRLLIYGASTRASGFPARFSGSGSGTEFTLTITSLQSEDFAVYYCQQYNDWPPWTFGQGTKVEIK
notes: as for B1
B3: binds [4].
